Data from the domain aggregation screens of Martell et al. (2025).

Assay: soluble fraction after stress (log2 fold change); higher = more stays soluble; pooled small domains, quantitative proteomics
Settings: stress: pH 4
Method in brief: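 Aggregation propensity is read out as the fold change in how much of each domain remains soluble after acid stress. The custom small-domain libraries were pooled, held at pH 4 and analysed with high-throughput quantitative proteomics. On the log2 scale used, higher values mean more of the domain stayed soluble.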

| Sequence | soluble fraction (log2) |
| --- | --- |
| HMTAVPADVETVTGFTALDRAGLDTLLARLGLAMDLEDLSFLQAYFRDTERRDPTLTEIRVVDTYWSDH | -1.44 |
| HMTDAEQHEALLFKQVVDGLPQTLRDTFVLSRHAGMTYAEISAHTGTPIKTVESRMAKALELIAQRMR | 0.0158 |
| HMTDDALIGKTAQVTVAIKPGSVGQITARVGDERVERLARASADAEIAAGSLVTIKSIAGDSVIVAPE | 0.22 |
| HMTDDPGLSRAENRELQTLLLDRGHDIGQPDGLIGAKTRAAIRAEQSRLNMPVNGRGGQKLLRALRL | -0.46 |
| HMTDFLKTRIDTLGLSTRTLNALSEANVRTIGGIARKKQEDLLEIDGIGEKGIQEIKKMLGEYGITL | -0.52 |
| HMTDFSDLSFKYNSEEKDVLNSINLKINGGEMTSLVGHSGAGKTTILNLIPRFYEKSKGDISIDGQSIY | -0.172 |
| HMTDGLTVPMQGVVIRYKAKKGDKVAVGDAVAVLEAMKMEQNIFANKSGTIKEIYIKEGTTVTPGDVLMSI | -0.89 |
| HMTDLNDTQIKILELLSADASLSAAKMAGQLGIAGRNVEANIKKLKEKGILIRHGSPKSGYWEIVN | 0.0328 |
| HMTDNSTTTIRNLKIEWLLEEIRNAVRTGVSVDAAVERISNNPFVKPPEDLLNEARIIFLQNAGQI | -0.848 |
| HMTDPVLYEERDDIAIITINRPEKKNTLTDAVIQGIADGIDAATKSADVVAVVLRGAGDTLTAGYDLTA | -1.28 |
| HMTDSDTQDIDVGELRVGHFVFLDLSWIRHPFPLSSFKIQSAEQIKTIRSLGLRRIRYSPGRSGP | -0.882 |
| HMTDSSEILEAALKEAEDAAHEVLNGTFSVQLEPQKAYIRRLQHMLIDRMNLSSTSKGKEPYRSLLVYR | -0.601 |
| HMTDTDVLSSRLSALSSGRTSAVRLRDGVLSLVLDVGGLSIEARKAMTTAIESTARATPGVEAVRIAET | 0.278 |
| HMTDTSFPRLGAPEEELLSFLAKWEIDAEDAHYTKFSLYYQSTGKMMRDWKATWRAWKERQSELNAQR | -1.05 |
| HMTDVGLEAAKAAALKHAGLSADQVTGLTAKLDWDDGQRVYEVDFWQGSTEYEYEINADGTVRQYESEAH | -0.469 |
| HMTDVRFIDIPVTEHHPWNGMKVRDLQLPPGTLLVFLSHPGEKNTVPHGETVLRSGDVLVLGATAYTGQ | -0.681 |
| HMTDVRFISIPIQKEHPWNRKLVSELNLPPGTLLVFLRRTGENIVPNGKTMIQEGDVLVLGASAYR | -1.04 |
| HMTEALEFTVEDLRMAGLVNSSFSRRRRELFSEKLGIGYGNGKSLLKKLNGYGITREEFNGAIQSLSD | -1.3 |
| HMTEIILTARSGRHAVRHRLEGLGYTLTPEELERVHQRFLAVADAKKEVFDEDLHALMADERGT | -0.467 |
| HMTEKMILKWKEALERMNDDFTTKDWLNVVIHEMGKSERTAYGWLSDMKRSGIIKDLGYGSWLKVLE | -0.2 |
| HMTEKPTREAHILDQLARDGGVLVAALSRELGVSEVTIRSDLRDLEAAGLLQRTHGGAQASSFQTVL | -0.48 |
| HMTELNNTQRAAVLLLALDEDSAAEVFKHLSAREVQEVSQEMAKLGNISHDQMRQVLDDFYDESEQF | -1.01 |
| HMTELPLTPRSKRILEMSALEARRLNHSYIGTEHLLMAIIRDGDGVAAKILESLGVNLPNFYTDTVRSIE | -0.0691 |
| HMTELSLSEQAYQQLRRMIVRLDFAPGDVLREEALQEALGMSRTPIREALQRLAREHFVTVIPRRGMFVS | -1.22 |
| HMTELVIPDYFSKALAKNKKAKQVFEAFAYSHRKEYLQWITEAKTEETRNKRMATAIEWIAEGKGRNWKYA | ≥ 0.43 |

| Sequence | soluble fraction (log2) |
| --- | --- |
| HMTEPIESVTTIAGRRIPYRLVRSLRARRMRMTIKESQVTVTLPRGVPLGEAERFLQQNAAWLFKQLDKP | 0.162 |
| HMTESIHVGSKVTINNNAKRWATGQNIYSGVKGKTYTVIQMNGSRLLLDKVISWINKGDVHLPGS | 0.0896 |
| HMTESIKRDEAIRLNNGRIYTLDAAKIGTNEYEVMLFNPRTGEEIDSAKTSTEADAILQFDRLRRMYHR | -0.151 |
| HMTETELYDEVNRLIGLHLSERDRMILIMRDRDEFEIDAIAARTGLSEGNIRLILSRARRTVREAYRNNI | -1.6 |
| HMTETNSVTINERLTLYRRSRSGRWQARVKLNTGEWHRFSTGTADFEKAKESAHRELHNVGFRAENNLPQ | -0.174 |
| HMTFDWAAYEISEKEIRVMSLVAEGFSNKEIAQELFLSEGTVRNYISNILEKLGLRDRTQLAVHYLKAV | -1.52 |
| HMTFENMFIENSGETLDREFLVENLRGISWQSYDRSVDVLVSRLRGKLGETPNNTRFIKTIHGVGYKFIGE | -0.472 |
| HMTFGENLIRLRRQQGLSQEQLGMRIGVSRQTVSKWELNDTTPEMEKLIALADLFGLSLDELTGRV | -0.392 |
| HMTFNLDVDGDDQVTALGDGLMIIRKLFGATFAGDALTNKAISPDATRTTDEIHAYIEKGITSGVLD | -0.288 |
| HMTFPAILRELLEKHPQTGKRTTLKELGEAVGTRQQSISLYRNGDTQPSPDILVRIAAFFGVSVDYLL | -0.198 |
| HMTFPYTSLKDAPKNMKEIDGVPLTLDQVNQIAKVADSIGVSKEKNGYAIAKSQFKKSHHIENNRWVKNK | 0.126 |
| HMTFVHTQIEATKEWIISHPLDKHPAVAVVDSAGSIVIGEVDYISKSIVRLRFTAEFSGKAYL | -1.79 |
| HMTGAEGKLARYLLTVPSGEPLRLSATDLAKRLGISRASLYRAFQALEDARLIRREGKSMYVLDPAGLEGV | ≥ 0.43 |
| HMTGENWAERSRQLAAAGLLVLGKEAQEKIASLPNLIPLIEAAAASDTRLLNAQTIDELLSFVPTEETI | -0.98 |
| HMTGESVPAPLSGTIFKILVAPGEQVEEGQTVIILEAMKMETEISAPRSGVVGAINIKEGDSVQVGQSLFT | 0.104 |
| HMTGIKISVDRLQIGNYVKLPLNWKDHPFLFSSFAIKSQEEIDLIRRLGLKQVIMFPDKSSMPPKPV | -0.0359 |
| HMTGLSNFEFNQIKLDLMHELTQTPLRLTDLVNRITSFENEKTITVIRFLVDEGILLLKDDTLSVAKID | -1.47 |
| HMTGMEAAEFGKRIMKLRKQKGMTQSKLAEQINVSNKAISRWETGEGFPEITLLKPLAKALGTTVDELFGE | -0.271 |
| HMTGMEKFLTIPSIRESTAAFEREYLIHYLDENAWQVSKTAAAIGIERTTLYKKMKQLGIVPIEE | -0.166 |
| HMTGNWRQMHKVKSKETIYGIAKEYGITVDELTKANPGMEAPGYTLKKGDYIFIPYATADANV | 0.0315 |
| HMTGQEGLIGAHGVALTRLSNEEGEVKVQGEIWQARSDQEVAKGASIEVVHVDGLVLTVRPQH | 0.175 |
| HMTGQLTEEELKQRQERAMSNPEIQGILSDPVMRQVLQDMSTDPKAAAEHQRNPTIMAKIQKLINAGIVQV | -0.0717 |
| HMTGSETLQDIFAHLEAGTVRTALSLIPRLDAVEYEQNRQRIAELAGVRPSALDDLRKQAKREEN | -0.434 |
| HMTGTKEQQVVMLNNILQKQLQAFELQGKRDYPMVTMKNMYNTLSKMVENAGLQTVESYFVDPIKGQQM | -0.266 |
| HMTGVEAIERYLASGVIPGVGPVLAKRLVERFGARTLEVIEDSPRRLTQVPGIGRQKARQIHQALKAQRE | 0.0508 |

| Sequence | soluble fraction (log2) |
| --- | --- |
| HMTGYVMIRVDGLSLEKFLNMAAEAGVRVSDVRRASYTVLYAVVSPRDLKKLQSVAPEKYTVTVR | -0.23 |
| HMTHANAALTPRHRLKVARLVVDEGWPVSEVAARFQVSWPTVKRWADRYRAGQSMQDRSSRP | 0.228 |
| HMTHEAEDLNALRMMVRDPIFSSDEPDLQQLRGAVAHAPQFVDRFKELYNDYQRLAEFVQNSL | -1 |
| HMTHFRTDERRREILSTIEADGRVSVSEIASRFDVSPVTIRSDLNYLAIQGKLKRVRGGAVLLDH | 0.275 |
| HMTIDNPESQKIMDMVPFFFQSRNYDEAIEALTYVIEQEPQFSEAYNKRATFYFMMGDLENSMKDIEITLA | -0.568 |
| HMTIGIGKSLDFNTSGEKAYRIYNFKGAYVGTFKASDMTSLKNEVQKSNVKAGAYMVRSLDGHVNRLIEIK | ≥ 0.43 |
| HMTIGKIVNIIEGSYANVRSAPDQNSEPIGRAYPGDAFLVDPLGSSGDWVKVTYEGQSGFIFQAYISV | -1.28 |
| HMTIGKRIKRRRIELKMSIDSLARTIGKDRSTVYRYESGAIDKVSSDVLAKLATALNTTPAYLIGL | 0.22 |
| HMTIKNHIDEILKKEPFILENIKNGLINISALARQIEPQLSRKVGKKLNVNAIIMTIKRMEIDQLNK | 0.0888 |
| HMTIPNGTVVNGTVLEAREAGAYLVRVAGQTLTAQANLPLLVGQHFRAVWDSSGDIPVLRLSDAEQALLGK | -0.121 |
| HMTIPRLPFAFAKRFGIVLDNRPSGFVAAHKEGLLPHVLLEVQRFLGDAYTLEVVSDDDFERILGQVYQT | -2.03 |
| HMTIPSYAEAVRYVRRQPRINTSTLADGLGIRWSLALDYLERMARSGVVGAIEDDGWWPVAR | 0.329 |
| HMTIRIPEEEYLTRAKRAAQMTAERGLDALFLFGSEGDFQNVRYFTSVTPIWERLGVVITASGKAAMLTGP | -0.0548 |
| HMTIRPEDVELVPAEDGYMQGDVVSNIFKGVHYELEVKANGYDWMVHTTKYVEVGSHVGIKVIPFNIQV | 0.22 |
| HMTISPYTKDDFLKGTKPFEDVYAHKADPFVHDRALEQMTIWAKSVGVNGFKKLYKAYIDSLRIKNKEI | 0.00637 |
| HMTKAGVDAWTRGDYAAAVKEWQAQAAKGDADAIFNLGQAFKLGKGVPQDLIKAEQLFGQAAA | -0.466 |
| HMTKDEIIIQSIIDAAKKLMQQYGLNKTTMEDIAKEAGKGKSTLYHYFKSKEEIFDQVINQEID | -1.06 |
| HMTKEEFLDEIKKELGFMPYEEVIKAEKYFESYFNGSEADEKVIERFGSPKYAAQNYYRTHVAN | 0.0371 |
| HMTKEEFLYELKKELSALDSAEATAYNLRYYSDYIDAEIAKGRSEQEVLDELGNPRWLVNSIKESG | -0.521 |
| HMTKGDRIKARREELGLTQTDLAEAISSTKQNIYKYENNIISNIPSDKVEAIAEVLKISPAYLMGWGDE | -0.594 |
| HMTKGFSIQDISLSKSTMTFLQQNKITDLASLLSMSKSQIEGMKGFKPKMIQEIEKNLDKVGLVLAQD | -0.228 |
| HMTKGVKVEIGTEEASVDLYVVMEYGTPIQKAAYDAQESVRKAIETMTNLHVVRVDVHVQGVSF | ≥ 0.43 |
| HMTKGVWHTVKKGENLYRISLYYEVPQQEIKKANKIETENIVVGQKLFIPNTTKKSPIFALTP | -0.0478 |
| HMTKIDYSINQIYSLRNIENITIVLKDKRSFTGKILKIYWQNGSKIILFTTETRNYKFKEYEISEIYKS | -0.706 |
| HMTKIEYTEQEFNDFIQAYKNNRKMFPEDYIVKTQVVFINKGFSKSQADMIIAQIETRLRLQGE | -0.378 |
